Read-outs that look alike come from different tables or passages of the source. Starred links: 1 amine or outer side, 2 acyl side, 3 side chain; linkers in the order of their positions; H or OH if unused. Positions of bridges follow the written chain, without caps; N, C: chain ends. Non-standard residues stand in square brackets, D forms with d. Primed or numbered codes have the meaning given here. No end group written: not given here. *: point of attachment. Tyr(OMe)″ = O-methyl-tyrosine (Y-OMe, TyrOMe, O-Me-Tyr), COc1ccc(C[C@H](N[*:1])C(=O)[*:2])cc1; Tyr(Me) = O-methyl-tyrosine (Y-OMe, O-Me-Tyr), COc1ccc(C[C@H](N[*:1])C(=O)[*:2])cc1; Tyr(nBu) = O-n-butyl-tyrosine, CCCCOc1ccc(C[C@H](N[*:1])C(=O)[*:2])cc1; Cys(β,β-pentamethylene) = O=C([C@@H](N[*:1])C1(S[*:3])CCCCC1)[*:2]; Y‑OMe = O-methyl-tyrosine, COc1ccc(C[C@H](N[*:1])C(=O)[*:2])cc1; Cyclohexylacetyl(1-SH) = O=C(CC1(S)CCCCC1)*; Phe(4-I) = N[C@@H](Cc1ccc(I)cc1)C(=O)O; hPhe = N[C@@H](CCc1ccccc1)C(=O)O; dPen = CC(C)(S)[C@@H](N)C(=O)O; Pen = CC(C)(S)[C@H](N)C(=O)O; code O = not defined here; Tmc = not defined here

Holding throughout (test): ELISA
Assay [1] addresses αvβ5.
The target of assay [2] is T1, Platelet glycoprotein IIb/IIIa (human, UniProt P08514 32-1039; P05106 27-788).
Assay [3] deals with αvβ5. This is another data set of the same source.
Assay [4] addresses αvβ5. This is another data set of the same source.
Assay [5] has as its target αvβ5. The source holds these as a separate data set.
Assay [6] concerns the target T1, Platelet glycoprotein IIb/IIIa. This is another data set of the same source.
Assay [7] has as its target αvβ5. This is another data set of the same source.
The target in assay [8] is T1, Platelet glycoprotein IIb/IIIa. This is another data set of the same source.
Assay [9] has as its target T2, Fibronectin receptor (human, UniProt P08648 42-1049; P05556 21-798).
Assay [10] addresses T2, Fibronectin receptor. The source holds these as a separate data set.
Assay [11] deals with T2, Fibronectin receptor. This is another data set of the same source.

T2 sequence (P08648 42-1049, chain 1 of 2): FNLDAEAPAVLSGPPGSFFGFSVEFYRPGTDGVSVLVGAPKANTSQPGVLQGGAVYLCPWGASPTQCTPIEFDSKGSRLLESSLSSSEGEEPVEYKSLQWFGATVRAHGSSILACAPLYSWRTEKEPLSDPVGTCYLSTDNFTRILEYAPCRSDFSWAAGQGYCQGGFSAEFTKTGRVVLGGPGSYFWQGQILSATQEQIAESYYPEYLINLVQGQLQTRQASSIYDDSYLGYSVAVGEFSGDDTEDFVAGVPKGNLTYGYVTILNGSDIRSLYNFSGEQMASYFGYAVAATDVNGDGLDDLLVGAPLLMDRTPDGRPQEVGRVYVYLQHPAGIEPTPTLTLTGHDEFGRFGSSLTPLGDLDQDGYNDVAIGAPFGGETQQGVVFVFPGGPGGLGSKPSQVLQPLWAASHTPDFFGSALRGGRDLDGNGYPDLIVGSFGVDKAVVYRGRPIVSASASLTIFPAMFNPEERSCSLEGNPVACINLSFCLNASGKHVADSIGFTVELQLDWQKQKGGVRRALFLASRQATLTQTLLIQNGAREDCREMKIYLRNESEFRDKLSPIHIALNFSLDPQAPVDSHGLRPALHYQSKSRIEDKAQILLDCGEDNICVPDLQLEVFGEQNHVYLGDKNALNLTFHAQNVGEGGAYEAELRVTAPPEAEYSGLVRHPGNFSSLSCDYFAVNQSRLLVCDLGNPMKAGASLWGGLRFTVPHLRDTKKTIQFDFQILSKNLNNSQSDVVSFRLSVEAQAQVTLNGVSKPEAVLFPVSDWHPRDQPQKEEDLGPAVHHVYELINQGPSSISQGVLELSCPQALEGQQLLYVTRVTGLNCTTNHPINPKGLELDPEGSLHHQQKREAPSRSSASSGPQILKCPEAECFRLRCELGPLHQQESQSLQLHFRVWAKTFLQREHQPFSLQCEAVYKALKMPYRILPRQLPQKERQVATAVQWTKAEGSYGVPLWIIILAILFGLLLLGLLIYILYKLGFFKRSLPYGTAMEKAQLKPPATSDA
T2 sequence (P05556 21-798, chain 2 of 2): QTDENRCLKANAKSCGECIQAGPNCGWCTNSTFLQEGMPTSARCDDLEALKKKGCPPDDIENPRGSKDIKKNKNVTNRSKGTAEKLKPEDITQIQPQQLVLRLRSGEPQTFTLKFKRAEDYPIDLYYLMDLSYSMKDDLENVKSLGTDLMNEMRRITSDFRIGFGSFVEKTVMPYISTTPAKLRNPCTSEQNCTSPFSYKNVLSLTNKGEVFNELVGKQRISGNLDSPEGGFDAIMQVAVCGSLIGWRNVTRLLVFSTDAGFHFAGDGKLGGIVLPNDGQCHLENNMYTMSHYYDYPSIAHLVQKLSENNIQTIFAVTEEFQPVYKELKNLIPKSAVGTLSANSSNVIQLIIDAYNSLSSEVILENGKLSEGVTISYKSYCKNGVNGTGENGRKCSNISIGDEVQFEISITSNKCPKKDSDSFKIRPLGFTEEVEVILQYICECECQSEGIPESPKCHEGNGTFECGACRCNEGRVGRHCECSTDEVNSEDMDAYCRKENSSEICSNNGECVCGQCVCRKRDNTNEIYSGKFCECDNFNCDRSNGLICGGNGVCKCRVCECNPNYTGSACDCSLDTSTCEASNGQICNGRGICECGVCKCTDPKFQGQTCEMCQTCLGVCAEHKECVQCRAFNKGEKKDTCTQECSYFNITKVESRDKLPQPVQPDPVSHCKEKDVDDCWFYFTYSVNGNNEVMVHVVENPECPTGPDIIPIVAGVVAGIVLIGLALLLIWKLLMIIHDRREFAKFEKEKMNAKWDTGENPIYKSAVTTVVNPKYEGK

B1: Ac-CNPRGD(Y-OMe)(Cit)C-NH2 (peptide)
peptide: CNPRGDXXC
modifications: N-terminal acetyl; O-Me-Tyr at 7; Cit at 8; C-terminal amide
The term IC50 denotes the concentration needed to halve the response being measured. High values mean weaker potency in that assay, low ones greater potency in that assay. Molecule B1 returned an IC50 in assay [1] of 3.46 µM.

B2: Ac-CNPRGD(Y-OMe)OC-NH2 (peptide)
peptide: Ac-CNPRGD[Y‑OMe][code O]C-NH2
modifications: disulfide 1-9 (inferred); reading uncertain
In the case of B2, the IC50 was 7.7 µM in [1] and 0.05 µM in [2].

B3: Ac-CNPRGD(Y-OMe)EC-NH2 (peptide)
peptide: Ac-CNPRGD[Tyr(OMe)″]EC-NH2
modifications: disulfide 1-9
In the case of B3, 9.47 µM corresponded to half-maximal inhibition in [1] (IC50).

B4: R(Pmc)GHRGD(Y-OMe)RCR (peptide)
peptide: R[Cys(β,β-pentamethylene)]GHRGD[Tyr(Me)]RCR
modifications: disulfide 2-10; also: Pmc2 made from D,L-Pmc, configuration not given here
For B4, the IC50 in assay [3], in assay [4] and in assay [5] was 1.05 µM throughout.

B5: R(Tmc)GHRGDLRCR (peptide)
peptide: R[Tmc]GHRGDLRCR
modifications: disulfide (positions not given here); reading uncertain; also: Tmc2 as D,L mixture of diastereomers, printed as R(Tmc)GHRGDLRCR
Turning to B5, in assay [6], inhibition was half-maximal at 0.03 µM (IC50).

B6: R(D-Pen)GHRGDLRCR (peptide)
peptide: R[dPen]GHRGDLRCR
modifications: disulfide 2-10
For the molecule B6, inhibition in assay [7] was half-maximal at 10 µM (IC50).

B7: G(D-Pen)GHRGDLRCA (peptide)
peptide: G[dPen]GHRGDLRCA
modifications: disulfide 2-10
In assay [7], B7 had an IC50 of 5.27 µM.

B8: Ac-CNPRGD(Y-OMe)KC-NH2 (peptide)
peptide: Ac-CNPRGD[Tyr(OMe)″]KC-NH2
modifications: disulfide 1-9
B8 had an IC50 in [1] of 5.82 µM.

B9: R(Pmc)GHRGDFRCR (peptide)
peptide: R[Cys(β,β-pentamethylene)]GHRGDFRCR
modifications: disulfide 2-10
On to B9, for which, in [8], the IC50 stood at 0.04 µM. This lies in the double-digit nanomolar range.

B10: R(Pen)GHRGDLRCR (peptide)
peptide: R[Pen]GHRGDLRCR
modifications: disulfide 2-10
B10: the IC50 in assay [7] amounted to 4.93 µM; in assay [6], 0.04 µM.

B11: R(Pmc)GHRGD(O-n-butyl-Tyr)RCR (peptide)
peptide: R[Cys(β,β-pentamethylene)]GHRGD[Tyr(nBu)]RCR
modifications: disulfide 2-10; also: Pmc from Boc-D/L-Pmc, isomer not given here
On to B11, for which, in assay [8], the midpoint of inhibition, the IC50, lay at 0.03 µM.

B12: R(Pmc)GHRGD(O-Me-Tyr)RCR (peptide)
peptide: R[Cys(β,β-pentamethylene)]GHRGD[Tyr(Me)]RCR
modifications: disulfide 2-10; also: Pmc2 made from D,L-Pmc, configuration not given here
For B12, the IC50 in [9], in [10] and in assay [11] was 0.98 µM throughout.

B13: R(Pmc)GHRGD(Hpa)RCR (peptide)
peptide: R[Cys(β,β-pentamethylene)]GHRGD[hPhe]RCR
modifications: disulfide 2-10; also: Pmc2 from Boc-D/L-Pmc, configuration not given here
Take B13: the IC50 in assay [3] came to 4.25 µM. This counts as single-digit micromolar.

B14: R(Pmc)GHRGD(p-I-F)RCR (peptide)
peptide: R[Cys(β,β-pentamethylene)]GHRGD[Phe(4-I)]RCR
modifications: disulfide 2-10; also: Pmc2 from Boc-D/L-Pmc
In the case of B14, the results for the half-inhibitory concentration (IC50) in assay [3], in assay [8] and in assay [11] were 4.03 µM, 0.01 µM and 4.19 µM, respectively.

B15: (Pmp)GHRGDLRCA (peptide)
peptide: [Cyclohexylacetyl(1-SH)]GHRGDLRCA
modifications: disulfide 1-9 (inferred)
Consider B15, for which the IC50 in assay [6] was found to be 0.02 µM.

B16: G(Pen)GHRGDLRCA (peptide)
peptide: G[Pen]GHRGDLRCA
modifications: disulfide 2-10
For the molecule B16, the IC50 in [7] was 8.26 µM.

B17: R(Pmc)GHRGDLRCR (peptide)
peptide: R[Cys(β,β-pentamethylene)]GHRGDLRCR
modifications: disulfide 2-10 (inferred); also: D,L-Pmc mixture at 2
With B17, the IC50 in [7] and in assay [3] was 1.58 µM in each case.
